Laboratory results as given in article PMC8752480 (Journal of molecular biology, 2021).

B1: hexon (major capsid protein) of HAdV-C5 in the Ad5F35-ts1 virion (natural protein)
chain: MATPSMMPQWSYMHISGQDASEYLSPGLVQFARATETYFSLNNKFRNPTVAPTHDVTTDRSQRLTLRFIPVDREDTAYSYKARFTLAVGDNRVLDMASTYFDIRGVLDRGPTFKPYSGTAYNALAPKGAPNPCEWDEAATALEINLEEEDDDNEDEVDEQAEQQKTHVFGQAPYSGINITKEGIQIGVEGQTPKYADKTFQPEPQIGESQWYETEINHAAGRVLKKTTPMKPCYGSYAKPTNENGGQGILVKQQNGKLESQVEMQFFSTTEATAGNGDNLTPKVVLYSEDVDIETPDTHISYMPTIKEGNSRELMGQQSMPNRPNYIAFRDNFIGLMYYNSTGNMGVLAGQASQLNAVVDLQDRNTELSYQLLLDSIGDRTRYFSMWNQAVDSYDPDVRIIENHGTEDELPNYCFPLGGVINTETLTKVKPKTGQENGWEKDATEFSDKNEIRVGNNFAMEINLNANLWRNFLYSNIALYLPDKLKYSPSNVKISDNPNTYDYMNKRVVAPGLVDCYINLGARWSLDYMDNVNPFNHHRNAGLRYRSMLLGNGRYVPFHIQVPQKFFAIKNLLLLPGSYTYEWNFRKDVNMVLQSSLGNDLRVDGASIKFDSICLYATFFPMAHNTASTLEAMLRNDTNDQSFNDYLSAANMLYPIPANATNVPISIPSRNWAAFRGWAFTRLKTKETPSLGSGYDPYYTYSGSIPYLDGTFYLNHTFKKVAITFDSSVSWPGNDRLLTPNEFEIKRSVDGEGYNVAQCNMTKDWFLVQMLANYNIGYQGFYIPESYKDRMYSFFRNFQPMSRQVVDDTKYKDYQQVGILHQHNNSGFVGYLAPTMREGQAYPANFPYPLIGKTAVDSITQKKFLCDRTLWRIPFSSNFMSMGALTDLGQNLLYANSAHALDMTFEVDPMDEPTLLYVLFEVFDVVRVHRPHRGVIETVYLRTPFSAGNATT
B2: precursor of protein IIIa (pIIIa) of HAdV-C5 in the Ad5F35-ts1 virion (natural protein)
chain: MMQDATDPAVRAALQSQPSGLNSTDDWRQVMDRIMSLTARNPDAFRQQPQANRLSAILEAVVPARANPTHEKVLAIVNALAENRAIRPDEAGLVYDALLQRVARYNSGNVQTNLDRLVGDVREAVAQRERAQQQGNLGSMVALNAFLSTQPANVPRGQEDYTNFVSALRLMVTETPQSEVYQSGPDYFFQTSRQGLQTVNLSQAFKNLQGLWGVRAPTGDRATVSSLLTPNSRLLLLLIAPFTDSGSVSRDTYLGHLLTLYREAIGQAHVDEHTFQEITSVSRALGQEDTGSLEATLNYLLTNRRQKIPSLHSLNSEEERILRYVQQSVSLNLMRDGVTPSVALDMTARNMEPGMYASNRPFINRLMDYLHRAAAVNPEYFTNAILNPHWLPPPGFYTGGFEVPEGNDGFLWDDIDDSVFSPQPQTLLELQQREQAEAALRKESFRRPSSLSDLGAAAPRSDASSPFPSLIGSLTSTRTTRPRLLGEEEYLNNSLLQPQREKNLPPAFPNNGIESLVDKMSRWKTYAQEHRDVPGPRPPTRRQRHDRQRGLVWEDDDSADDSSVLDLGGSGNPFAHLRPRLGRMF
B3: penton base of HAdV-C5 in the Ad5F35-ts1 virion (natural protein)
chain: MRRAAMYEEGPPPSYESVVSAAPVAAALGSPFDAPLDPPFVPPRYLRPTGGRNSIRYSELAPLFDTTRVYLVDNKSTDVASLNYQNDHSNFLTTVIQNNDYSPGEASTQTINLDDRSHWGGDLKTILHTNMPNVNEFMFTNKFKARVMVSRLPTKDNQVELKYEWVEFTLPEGNYSETMTIDLMNNAIVEHYLKVGRQNGVLESDIGVKFDTRNFRLGFDPVTGLVMPGVYTNEAFHPDIILLPGCGVDFTHSRLSNLLGIRKRQPFQEGFRITYDDLEGGNIPALLDVDAYQASLKDDTEQGGGGAGGSNSSGSGAEENSNAAAAAMQPVEDMNDHAIRGDTFATRAEEKRAEAEAAAEAAAPAAQPEVEKPQKKPVIKPLTEDSKKRSYNLISNDSTFTQYRSWYLAYNYGDPQTGIRSWTLLCTPDVTCGSEQVYWSLPDMMQDPVTFRSTRQISNFPVVGAELLPVHSKSFYNDQAVYSQLIRQFTSLTHVFNRFPENQILARPPAPTITTVSENVPALTDHGTLPLRNSIGGVQRVTITDARRRTCPYVYKALGIVSPRVLSSRTF
B4: precursor of protein VIII (pVIII) of HAdV-C5 in the Ad5F35-ts1 virion (natural protein)
chain: MSKEIPTPYMWSYQPQMGLAAGAAQDYSTRINYMSAGPHMISRVNGIRAHRNRILLEQAAITTTPRNNLNPRSWPAALVYQESPAPTTVVLPRDAQAEVQMTNSGAQLAGGFRHRVRSPGQGITHLTIRGRGIQLNDESVSSSLGLRPDGTFQIGGAGRPSFTPRQAILTLQTSSSEPRSGGIGTLQFIEEFVPSVYFNPFSGPPGHYPDQFIPNFDAVKDSADGYD
B5: protein IX of HAdV-C5 in the Ad5F35-ts1 virion (natural protein)
chain: MSTNSFDGSIVSSYLTTRMPPWAGVRQNVMGSSIDGRPVLPANSTTLTYETVSGTPLETAASAAASAAAATARGIVTDFAFLSPLASSAASRSSARDDKLTALLAQLDSLTRELNVVSQQLLDLRQQVSALKASSPPNAV
B6: precursor of protein VI (pVI) of HAdV-C5 in the Ad5F35-ts1 virion (natural protein)
chain: MEDINFASLAPRHGSRPFMGNWQDIGTSNMSGGAFSWGSLWSGIKNFGSTVKNYGSKAWNSSTGQMLRDKLKEQNFQQKVVDGLASGISGVVDLANQAVQNKINSKLDPRPPVEEPPPAVETVSPEGRGEKRPRPDREETLVTQIDEPPSYEEALKQGLPTTRPIAPMATGVLGQHTPVTLDLPPPADTQQKPVLPGPTAVVVTRPSRASLRRAASGPRSLRPVASGNWQSTLNSIVGLGVQSLKRRRCF

Molecular target: the molecule itself
Test: […]

| Binder | binding result |
| --- | --- |
| B1 | binds |
| B2 | binds |
| B3 | binds |

molecular target: B1; test: […]

| Binder | binding result |
| --- | --- |
| B4 | binds |
| B5 | binds |
| B2 | binds |
| B6 | binds |
| B3 | binds |
